Results from patent US20150344570A1 (published 2015).

T1: FcγRIIa R (human, UniProt P12318 34-217)
T1 construct: extracellular domain; also called FcgRIIa R type; 2aR
T1 sequence (looked up): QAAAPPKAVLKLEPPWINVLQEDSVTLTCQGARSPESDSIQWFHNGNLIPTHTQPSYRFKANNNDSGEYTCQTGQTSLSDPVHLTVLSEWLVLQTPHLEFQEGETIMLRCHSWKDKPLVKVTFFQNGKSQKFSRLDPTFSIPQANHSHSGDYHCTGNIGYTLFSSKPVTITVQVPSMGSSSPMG

B1: GpH7-A5/GpH7-B3 variant K334_05P/GpL16-k0 (antibody, human IgG1, kappa)
heavy 1: not shown
heavy 2: not shown
light: DIVMTQSPLSLPVTPGEPASISCQASESLVHSNRNTYLHWYLQKPGQSPQLLIYKVSNRFSGVPDRFSGSGSGTDFTLKISRVEAEDVGVYYCSQNTHVPPTFGQGTKVEIERTVAAPSVFIFPPSDEQLKSGTASVVCLLNNFYPREAKVQWKVDNALQSGNSQESVTEQDSKDSTYSLSSTLTLSKADYEKHKVYACEVTHQGLSSPVTKSFNRGEC
notes: also called He Ab K334_05P
B2: GpH7-A5/GpH7-B3 variant L235_04F/GpL16-k0 (antibody, human IgG1, kappa)
heavy 1: not shown
heavy 2: not shown
light: DIVMTQSPLSLPVTPGEPASISCQASESLVHSNRNTYLHWYLQKPGQSPQLLIYKVSNRFSGVPDRFSGSGSGTDFTLKISRVEAEDVGVYYCSQNTHVPPTFGQGTKVEIERTVAAPSVFIFPPSDEQLKSGTASVVCLLNNFYPREAKVQWKVDNALQSGNSQESVTEQDSKDSTYSLSSTLTLSKADYEKHKVYACEVTHQGLSSPVTKSFNRGEC
notes: also called He Ab L235_04F
B3: GpH7-A5/GpH7-B3 variant K334_08L/GpL16-k0 (antibody, human IgG1, kappa)
heavy 1: not shown
heavy 2: not shown
light: DIVMTQSPLSLPVTPGEPASISCQASESLVHSNRNTYLHWYLQKPGQSPQLLIYKVSNRFSGVPDRFSGSGSGTDFTLKISRVEAEDVGVYYCSQNTHVPPTFGQGTKVEIERTVAAPSVFIFPPSDEQLKSGTASVVCLLNNFYPREAKVQWKVDNALQSGNSQESVTEQDSKDSTYSLSSTLTLSKADYEKHKVYACEVTHQGLSSPVTKSFNRGEC
notes: also called He Ab K334_08L
B4: GpH7-A5/GpH7-B3 variant L234_04F/GpL16-k0 (antibody, human IgG1, kappa)
heavy 1: not shown
heavy 2: not shown
light: DIVMTQSPLSLPVTPGEPASISCQASESLVHSNRNTYLHWYLQKPGQSPQLLIYKVSNRFSGVPDRFSGSGSGTDFTLKISRVEAEDVGVYYCSQNTHVPPTFGQGTKVEIERTVAAPSVFIFPPSDEQLKSGTASVVCLLNNFYPREAKVQWKVDNALQSGNSQESVTEQDSKDSTYSLSSTLTLSKADYEKHKVYACEVTHQGLSSPVTKSFNRGEC
notes: also called He Ab L234_04F
B5: GpH7-A5/GpH7-B3 variant N325_04F/GpL16-k0 (antibody, human IgG1, kappa)
heavy 1: not shown
heavy 2: not shown
light: DIVMTQSPLSLPVTPGEPASISCQASESLVHSNRNTYLHWYLQKPGQSPQLLIYKVSNRFSGVPDRFSGSGSGTDFTLKISRVEAEDVGVYYCSQNTHVPPTFGQGTKVEIERTVAAPSVFIFPPSDEQLKSGTASVVCLLNNFYPREAKVQWKVDNALQSGNSQESVTEQDSKDSTYSLSSTLTLSKADYEKHKVYACEVTHQGLSSPVTKSFNRGEC
notes: also called He Ab N325_04F
B6: GpH7-A5/GpH7-B3 variant N325_03V/GpL16-k0 (antibody, human IgG1, kappa)
heavy 1: not shown
heavy 2: not shown
light: DIVMTQSPLSLPVTPGEPASISCQASESLVHSNRNTYLHWYLQKPGQSPQLLIYKVSNRFSGVPDRFSGSGSGTDFTLKISRVEAEDVGVYYCSQNTHVPPTFGQGTKVEIERTVAAPSVFIFPPSDEQLKSGTASVVCLLNNFYPREAKVQWKVDNALQSGNSQESVTEQDSKDSTYSLSSTLTLSKADYEKHKVYACEVTHQGLSSPVTKSFNRGEC
notes: also called He Ab N325_03V
B7: GpH7-A5/GpH7-B3 variant L235_20W/GpL16-k0 (antibody, human IgG1, kappa)
heavy 1: not shown
heavy 2: not shown
light: DIVMTQSPLSLPVTPGEPASISCQASESLVHSNRNTYLHWYLQKPGQSPQLLIYKVSNRFSGVPDRFSGSGSGTDFTLKISRVEAEDVGVYYCSQNTHVPPTFGQGTKVEIERTVAAPSVFIFPPSDEQLKSGTASVVCLLNNFYPREAKVQWKVDNALQSGNSQESVTEQDSKDSTYSLSSTLTLSKADYEKHKVYACEVTHQGLSSPVTKSFNRGEC
notes: also called He Ab L235_20W
B8: GpH7-A5/GpH7-B3 variant L328_10E/GpL16-k0 (antibody, human IgG1, kappa)
heavy 1: not shown
heavy 2: not shown
light: DIVMTQSPLSLPVTPGEPASISCQASESLVHSNRNTYLHWYLQKPGQSPQLLIYKVSNRFSGVPDRFSGSGSGTDFTLKISRVEAEDVGVYYCSQNTHVPPTFGQGTKVEIERTVAAPSVFIFPPSDEQLKSGTASVVCLLNNFYPREAKVQWKVDNALQSGNSQESVTEQDSKDSTYSLSSTLTLSKADYEKHKVYACEVTHQGLSSPVTKSFNRGEC
notes: also called He Ab L328_10E
B9: GpH7-A5/GpH7-B3 variant L235_09D/GpL16-k0 (antibody, human IgG1, kappa)
heavy 1: not shown
heavy 2: not shown
light: DIVMTQSPLSLPVTPGEPASISCQASESLVHSNRNTYLHWYLQKPGQSPQLLIYKVSNRFSGVPDRFSGSGSGTDFTLKISRVEAEDVGVYYCSQNTHVPPTFGQGTKVEIERTVAAPSVFIFPPSDEQLKSGTASVVCLLNNFYPREAKVQWKVDNALQSGNSQESVTEQDSKDSTYSLSSTLTLSKADYEKHKVYACEVTHQGLSSPVTKSFNRGEC
notes: also called He Ab L235_09D
B10: GpH7-A5/GpH7-B3 variant L235_15Y/GpL16-k0 (antibody, human IgG1, kappa)
heavy 1: not shown
heavy 2: not shown
light: DIVMTQSPLSLPVTPGEPASISCQASESLVHSNRNTYLHWYLQKPGQSPQLLIYKVSNRFSGVPDRFSGSGSGTDFTLKISRVEAEDVGVYYCSQNTHVPPTFGQGTKVEIERTVAAPSVFIFPPSDEQLKSGTASVVCLLNNFYPREAKVQWKVDNALQSGNSQESVTEQDSKDSTYSLSSTLTLSKADYEKHKVYACEVTHQGLSSPVTKSFNRGEC
notes: also called He Ab L235_15Y
B11: GpH7-A5/GpH7-B3 variant L328_09D/GpL16-k0 (antibody, human IgG1, kappa)
heavy 1: not shown
heavy 2: not shown
light: DIVMTQSPLSLPVTPGEPASISCQASESLVHSNRNTYLHWYLQKPGQSPQLLIYKVSNRFSGVPDRFSGSGSGTDFTLKISRVEAEDVGVYYCSQNTHVPPTFGQGTKVEIERTVAAPSVFIFPPSDEQLKSGTASVVCLLNNFYPREAKVQWKVDNALQSGNSQESVTEQDSKDSTYSLSSTLTLSKADYEKHKVYACEVTHQGLSSPVTKSFNRGEC
notes: also called He Ab L328_09D

Molecular target: T1, FcγRIIa R
Assay: SPR (Biacore), captured antibody, FcγR as analyte; relative binding activity

Binder | He/Con_2aR
B1 | 103 % (GpH7-A5/GpH7-B3/GpL16-k0 = 100)
B2 | 114 % (GpH7-A5/GpH7-B3/GpL16-k0 = 100)
B3 | 106 % (GpH7-A5/GpH7-B3/GpL16-k0 = 100)
B4 | 104 % (GpH7-A5/GpH7-B3/GpL16-k0 = 100)
B5 | 120 % (GpH7-A5/GpH7-B3/GpL16-k0 = 100)
B6 | 108 % (GpH7-A5/GpH7-B3/GpL16-k0 = 100)
B7 | 131 % (GpH7-A5/GpH7-B3/GpL16-k0 = 100)
B8 | 105 % (GpH7-A5/GpH7-B3/GpL16-k0 = 100)
B9 | 101 % (GpH7-A5/GpH7-B3/GpL16-k0 = 100)
B10 | 129 % (GpH7-A5/GpH7-B3/GpL16-k0 = 100)
B11 | 119 % (GpH7-A5/GpH7-B3/GpL16-k0 = 100)
